According to the PETadex activity labels (doi:10.1021/acsomega.4c04843):

Assays:
pNPB = test: Proxy for plastic degradation [p-nitrophenol (pNP) release]; details: pH 7.4
PET = test: Proxy for plastic degradation [Released monomer concentration (HPLC/LC-MS) (TPA)]; details: pH 8

B1: unnamed (protein)
chain: MMGYITAHDGTNLYVEDVGFGEPIVFLHGWPANNNMFEYQKNALVEAGYRYIGIDFRGYGKSDAPATGYDYETMASDVHMVVYGLGLKNFTLVGFSMGGAIAVRYAADYKEDGLNKLVLAGAAAPIFTQRADYPYGMTTDEVDALIDDTRADRPKMLEGFGEIFFEKEHSKPMQNWFHHLALVASSHGTIASAQALRDEDLRDALPKIDVETLIIHGVHDKICPFAFAEQMEQGISNARIERFEESGHGTVLDEREKFNDTLLQFVQ
pNPB; 37 °C
  Proxy for plastic degradation: 245 U/mL
pNPB; 42 °C
  Proxy for plastic degradation: 300 U/mL
PET
  Proxy for plastic degradation: 3.7 mM/mg

B2: unnamed (protein)
chain: MFRFHIVSALLTLFIAVPSQAHDVGQREIKISGAEPGRNLEVSVWYPAAIDGKATLIGDNIIFKGAPAVIDATPEKGSFPLLVMSHGSGGRAQGMAWLATELVKAGIIVAAPNHPGTTSGDSTPQDTPKIWQRTGDLSAVIDTMTTDPAWSGIIDKNKISVLGFSLGGAAAMEIAGARANLEAYARYCDTYGKWDCAWYAGGIGYRDDKQIKVDKVDLRSVDKSRFEQSNLDRRIASAIMIDPGLAQAYDAQSLASISIPMSFINLGEVETIPTGVVADKLASITPQGTYVTVAGATHFSFLPECKKGAADRLKSAGEVDPICSDDARRPRADIHADITKLVLKALQSMPKT
pNPB; 37 °C
  Proxy for plastic degradation: 255 U/mL
pNPB; 42 °C
  Proxy for plastic degradation: 330 U/mL
PET
  Proxy for plastic degradation: 0.8 mM/mg

B3: unnamed (protein)
chain: MFRFHIVSALLTLFIAVPSQAHDVGQREIKISGAEPGRNLEVSVWYPAAIDGKATLIGDNIIFKGAPAVIDATPEKGSFPLLVMSHGSGGRAQGMAWLATELVKAGIIVAAPNHPGTTSGDSTPQDTPKIWQRTGDLSAVIDTMTTDPAWSGIIDKNKISVLGFSMGGAAAMEIAGARANLEAYARYCDTYGKWDCAWYAGGIGYRDDKQIKVDKVDLRSVDKSRFEQSNLDRRIASAIMIDPGLAQAYDAQSLASISIPMSFINLGEVETIPTGVVADKLASITPQGTYVTVAGATHWSFLPECKKGAADRLKSAGEVDPICSDDARRPRADIHADITKLVLKALQSMPKT
PET
  Proxy for plastic degradation: 2.3 mM/mg

B4: unnamed (protein)
chain: MFRFHIVSALLTLFIAVPSQAHDVGQREIKISGAEPGRNLEVSVWYPAAIDGKATLIGDNIIFKGAPAVIDATPEKGSFPLLVMSHGSGGRAQGMAWLATELVKAGIIVAAPNHPGTTSGDSTPQDTPKIWQRTGDLSAVIDTMTTDPAWSGIIDKNKISVLGFSMGGAAAMEIAGARANLEAYARYCDTYGKWDCAWYAGGIGYRDDKQIKVDKVDLRSVDKSRFEQSNLDRRIASAIMIDPGLAQAYDAQSLASISIPMSFINLGEVETIPTGVVADKLASITPQGTYVTVDGATHFSFLPECKKGAADRLKSAGEVDPICSDDARRPRADIHADITKLVLKALQSMPKT
PET
  Proxy for plastic degradation: 2.6 mM/mg

B5: unnamed (protein)
chain: MFRFHIVSALLTLFIAVPSQAHDVGQREIKISGAEPGRNLEVSVWYPAAIDGKATLIGDNIIFKGAPAVIDATPEKGSFPLLVMSHGSGGRAQGMAWLATELVKAGIIVAAPNHPGTTSGDSTPQDTPKIWQRTGDLSAVIDTMTTDPAWSGIIDKNKISVLGFSMGGAAAMEIAGARANLEAYARYCDTYGKWDCAWYAGGIGYRDDKQIKVDKVDLRSVDKSRFEQSNLDRRIASAIMIDPGLAQAYDAQSLASISIPMSFINLGEVETIPTGVVADKLASITPQGTYVTVAGATHISFLPECKKGAADRLKSAGEVDPICSDDARRPRADIHADITKLVLKALQSMPKT
PET
  Proxy for plastic degradation: 1.5 mM/mg

B6: unnamed (protein)
chain: MSNPYQRGPNPTRSALTADGPFSVATYTVSRLSVSGFGGGVIYYPTGTSLTFGGIAMSPGYTADASSLAWLGRRLASHGFVVLVINTNSRFDGPDSRASQLSAALNYLRTSSPSAVRARLDANRLAVAGHSMGGGGTLRIAEQNPSLKAAVPLTPWHTDKTFNTSVPVLIVGAEADTVAPVSQHAIPFYQNLPSTTPKVYVELCNASHIAPNSNNAAISVYTISWMKLWVDNDTRYRQFLCNVNDPALCDFRTNNRHCQLEHHHHHH
PET
  Proxy for plastic degradation: 3 mM/mg
